Measured values from paper PMC9482650, “Quantitative fragmentomics allow affinity mapping of interactomes” (Nature Communications, 2022).

T1: GRIP1_5, Q9Y3R0
T1 sequence (Q9Y3R0 568-668, limits assumed, looked up): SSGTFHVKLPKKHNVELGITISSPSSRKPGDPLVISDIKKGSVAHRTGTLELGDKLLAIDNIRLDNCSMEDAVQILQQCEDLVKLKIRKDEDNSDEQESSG

T2: TJP3_3, O95049
T2 sequence (O95049 375-456, limits assumed, looked up): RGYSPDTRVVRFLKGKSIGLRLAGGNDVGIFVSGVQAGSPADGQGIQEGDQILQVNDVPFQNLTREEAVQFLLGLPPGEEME

T3: RHPN1, Q8TCX5
T3 sequence (Q8TCX5 508-602, limits assumed, looked up): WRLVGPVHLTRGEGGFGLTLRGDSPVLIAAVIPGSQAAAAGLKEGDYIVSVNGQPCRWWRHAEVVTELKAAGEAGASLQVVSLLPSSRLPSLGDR

T4: LIN7A, O14910
T4 sequence (O14910 103-200, limits assumed, looked up): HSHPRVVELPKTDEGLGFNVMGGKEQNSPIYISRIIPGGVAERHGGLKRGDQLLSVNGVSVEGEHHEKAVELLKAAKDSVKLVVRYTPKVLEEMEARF

T5: RAPGEF6, Q8TEU7
T5 sequence (Q8TEU7 525-625, limits assumed, looked up): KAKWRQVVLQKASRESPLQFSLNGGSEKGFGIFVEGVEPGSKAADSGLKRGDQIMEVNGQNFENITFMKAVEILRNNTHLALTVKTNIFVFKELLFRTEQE

T6: PDZRN3_1, Q9UPQ7
T6 sequence (Q9UPQ7 244-349, limits assumed, looked up): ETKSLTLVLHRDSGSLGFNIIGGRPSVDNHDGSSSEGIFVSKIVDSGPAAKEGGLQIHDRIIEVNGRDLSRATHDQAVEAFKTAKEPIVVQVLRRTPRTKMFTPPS

T7: GRIP1_2, Q9Y3R0
T7 sequence (Q9Y3R0 145-248, limits assumed, looked up): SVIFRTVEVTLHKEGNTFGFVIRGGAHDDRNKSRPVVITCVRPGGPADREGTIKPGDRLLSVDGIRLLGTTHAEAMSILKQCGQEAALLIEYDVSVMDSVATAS

T8: FRMPD1, Q5SYB0
T8 sequence (Q5SYB0 52-145, limits assumed, looked up): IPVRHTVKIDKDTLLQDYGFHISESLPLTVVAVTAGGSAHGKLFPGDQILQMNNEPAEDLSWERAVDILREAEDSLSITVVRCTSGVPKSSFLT

T9: RADIL, Q96JH8
T9 sequence (Q96JH8 971-1071, limits assumed, looked up): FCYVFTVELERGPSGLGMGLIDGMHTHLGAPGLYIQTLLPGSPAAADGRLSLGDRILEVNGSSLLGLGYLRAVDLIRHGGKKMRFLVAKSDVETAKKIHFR

T10: GRIP1_3, Q9Y3R0
T10 sequence (Q9Y3R0 247-346, limits assumed, looked up): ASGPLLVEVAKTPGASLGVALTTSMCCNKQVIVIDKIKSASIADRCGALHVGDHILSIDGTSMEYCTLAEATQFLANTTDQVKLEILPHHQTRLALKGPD


Assays:
Assay in all cases: holdup assay
Set-up in all cases: key: below the threshold = too weak to quantify, mostly under pKd 3.1 to 4
Settings in all cases: plain residues with an end cap or a label only (N-terminal biotin on a linker: ado-ado)
PDLIM1, O00151 = biological target: PDLIM1, O00151
Sequence of PDLIM1, O00151 (O00151 1-87): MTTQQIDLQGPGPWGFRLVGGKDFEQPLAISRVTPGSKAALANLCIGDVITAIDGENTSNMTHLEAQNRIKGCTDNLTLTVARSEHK

GRIP1_5, Q9Y3R0 = biological target: T1, GRIP1_5, Q9Y3R0
TJP3_3, O95049 = biological target: T2, TJP3_3, O95049
RHPN1, Q8TCX5 = biological target: T3, RHPN1, Q8TCX5
DLG4_3, P78352 = biological target: DLG4_3, P78352
Sequence of DLG4_3, P78352 (P78352 306-403): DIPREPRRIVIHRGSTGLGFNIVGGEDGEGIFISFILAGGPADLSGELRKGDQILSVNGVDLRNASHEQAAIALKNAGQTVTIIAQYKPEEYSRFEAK

GORASP1, Q9BQQ3 = biological target: GORASP1, Q9BQQ3
Sequence of GORASP1, Q9BQQ3 (Q9BQQ3 1-208): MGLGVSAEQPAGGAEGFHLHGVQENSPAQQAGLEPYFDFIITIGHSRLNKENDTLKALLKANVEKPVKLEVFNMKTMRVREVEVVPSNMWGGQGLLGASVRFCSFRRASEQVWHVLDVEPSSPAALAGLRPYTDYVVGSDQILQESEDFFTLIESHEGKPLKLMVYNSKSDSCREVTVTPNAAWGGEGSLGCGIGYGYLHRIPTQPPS

LIN7A, O14910 = biological target: T4, LIN7A, O14910
HTRA1, Q92743 = biological target: HTRA1, Q92743
Sequence of HTRA1, Q92743 (Q92743 360-477): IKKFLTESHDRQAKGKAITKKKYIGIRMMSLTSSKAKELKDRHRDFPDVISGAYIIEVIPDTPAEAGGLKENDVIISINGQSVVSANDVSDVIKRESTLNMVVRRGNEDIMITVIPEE

GOPC, Q9HD26 = biological target: GOPC, Q9HD26
RAPGEF6, Q8TEU7 = biological target: T5, RAPGEF6, Q8TEU7
PDZRN3_1, Q9UPQ7 = biological target: T6, PDZRN3_1, Q9UPQ7
NHERF4_4, Q86UT5 = biological target: NHERF4_4, Q86UT5
Sequence of NHERF4_4, Q86UT5 (Q86UT5 464-550): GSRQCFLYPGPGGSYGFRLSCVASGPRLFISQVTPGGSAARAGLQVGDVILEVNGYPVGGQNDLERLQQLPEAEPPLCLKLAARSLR

Inadl_10, Q8NI35 = biological target: Inadl_10, Q8NI35
Sequence of Inadl_10, Q8NI35 (Q8NI35 1673-1763): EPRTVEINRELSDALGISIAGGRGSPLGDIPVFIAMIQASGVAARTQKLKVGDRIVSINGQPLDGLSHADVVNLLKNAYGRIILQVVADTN

LNX1_1, Q8TBB1 = biological target: LNX1_1, Q8TBB1
Sequence of LNX1_1, Q8TBB1 (Q8TBB1 261-371): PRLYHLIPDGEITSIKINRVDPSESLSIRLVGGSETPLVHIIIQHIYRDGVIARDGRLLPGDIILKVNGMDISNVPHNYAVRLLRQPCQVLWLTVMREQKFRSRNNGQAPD

GRIP1_2, Q9Y3R0 = biological target: T7, GRIP1_2, Q9Y3R0
MAGI1_1, Q96QZ7 = biological target: MAGI1_1, Q96QZ7
Sequence of MAGI1_1, Q96QZ7 (Q96QZ7 1-106): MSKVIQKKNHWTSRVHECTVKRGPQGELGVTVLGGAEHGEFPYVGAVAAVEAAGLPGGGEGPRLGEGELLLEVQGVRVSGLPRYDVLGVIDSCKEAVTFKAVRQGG

DLG5_1, Q8TDM6 = biological target: DLG5_1, Q8TDM6
Sequence of DLG5_1, Q8TDM6 (Q8TDM6 617-713): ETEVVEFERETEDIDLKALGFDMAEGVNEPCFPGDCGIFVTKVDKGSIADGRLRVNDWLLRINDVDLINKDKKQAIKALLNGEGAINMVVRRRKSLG

LNX1_3, Q8TBB1 = biological target: LNX1_3, Q8TBB1
Sequence of LNX1_3, Q8TBB1 (Q8TBB1 500-596): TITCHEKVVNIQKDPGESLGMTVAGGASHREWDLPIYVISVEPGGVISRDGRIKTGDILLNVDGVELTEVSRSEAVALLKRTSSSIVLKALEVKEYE

PDZRN4_1, Q6ZMN7 = biological target: PDZRN4_1, Q6ZMN7
Sequence of PDZRN4_1, Q6ZMN7 (Q6ZMN7 213-318): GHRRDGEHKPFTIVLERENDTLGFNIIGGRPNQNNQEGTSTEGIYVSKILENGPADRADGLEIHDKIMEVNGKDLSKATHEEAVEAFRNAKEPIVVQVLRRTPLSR

FRMPD1, Q5SYB0 = biological target: T8, FRMPD1, Q5SYB0
TJP2_1, Q9UDY2 = biological target: TJP2_1, Q9UDY2
Sequence of TJP2_1, Q9UDY2 (Q9UDY2 24-128): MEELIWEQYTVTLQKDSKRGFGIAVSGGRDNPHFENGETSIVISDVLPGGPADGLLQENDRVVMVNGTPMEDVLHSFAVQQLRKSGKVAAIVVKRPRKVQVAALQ

RADIL, Q96JH8 = biological target: T9, RADIL, Q96JH8
NHERF4_2, Q86UT5 = biological target: NHERF4_2, Q86UT5
Sequence of NHERF4_2, Q86UT5 (Q86UT5 220-308): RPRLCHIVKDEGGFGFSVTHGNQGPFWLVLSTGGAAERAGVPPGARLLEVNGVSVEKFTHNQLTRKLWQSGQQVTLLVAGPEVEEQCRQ

DLG1_1, Q12959 = biological target: DLG1_1, Q12959
GRIP1_3, Q9Y3R0 = biological target: T10, GRIP1_3, Q9Y3R0
MAST2, Q6P0Q8 = biological target: MAST2, Q6P0Q8
Sequence of MAST2, Q6P0Q8 (Q6P0Q8 1099-1202): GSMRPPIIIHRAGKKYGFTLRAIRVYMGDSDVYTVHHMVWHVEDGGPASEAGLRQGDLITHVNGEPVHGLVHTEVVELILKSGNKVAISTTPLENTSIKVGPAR

GORASP2, Q9H8Y8 = biological target: GORASP2, Q9H8Y8
SCRIB_1, Q14160 = biological target: SCRIB_1, Q14160
Sequence of SCRIB_1, Q14160 (Q14160 718-814): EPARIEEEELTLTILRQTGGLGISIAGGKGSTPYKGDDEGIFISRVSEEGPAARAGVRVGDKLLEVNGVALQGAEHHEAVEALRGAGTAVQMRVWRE

| Binder | pKd (PDLIM1, O00151) | pKd (GRIP1_5, Q9Y3R0) | pKd (TJP3_3, O95049) | pKd (RHPN1, Q8TCX5) | pKd (DLG4_3, P78352) | pKd (GORASP1, Q9BQQ3) | pKd (LIN7A, O14910) | pKd (HTRA1, Q92743) | pKd (GOPC, Q9HD26) | pKd (RAPGEF6, Q8TEU7) | pKd (PDZRN3_1, Q9UPQ7) | pKd (NHERF4_4, Q86UT5) | pKd (Inadl_10, Q8NI35) | pKd (LNX1_1, Q8TBB1) | pKd (GRIP1_2, Q9Y3R0) | pKd (MAGI1_1, Q96QZ7) | pKd (DLG5_1, Q8TDM6) | pKd (LNX1_3, Q8TBB1) | pKd (PDZRN4_1, Q6ZMN7) | pKd (FRMPD1, Q5SYB0) | also measured |
| --- | --- | --- | --- | --- | --- | --- | --- | --- | --- | --- | --- | --- | --- | --- | --- | --- | --- | --- | --- | --- | --- |
| NSTHNLKDYV [CLDN20, P56880] | below the threshold | below the threshold | below the threshold | below the threshold | below the threshold | below the threshold | below the threshold | 3.64 | below the threshold | below the threshold | 3.83 | below the threshold | below the threshold | below the threshold | below the threshold | below the threshold | below the threshold | below the threshold | below the threshold | below the threshold | pKd (TJP2_1, Q9UDY2): 3.8; pKd (RADIL, Q96JH8): 3.85; pKd (NHERF4_2, Q86UT5): below the threshold; pKd (DLG1_1, Q12959): below the threshold; pKd (GRIP1_3, Q9Y3R0): below the threshold; pKd (MAST2, Q6P0Q8): below the threshold; pKd (GORASP2, Q9H8Y8): below the threshold; pKd (SCRIB_1, Q14160): below the threshold |
| GQNMTVSVVI [PRLHR, P49683] | below the threshold | below the threshold | below the threshold | below the threshold | below the threshold | 4.28 | below the threshold | 4.82 | below the threshold | below the threshold | below the threshold | 3.97 | below the threshold | 3.47 | below the threshold | 4.22 | 3.97 | below the threshold | below the threshold | below the threshold | pKd (TJP2_1, Q9UDY2): below the threshold; pKd (RADIL, Q96JH8): 4.26; pKd (NHERF4_2, Q86UT5): below the threshold; pKd (DLG1_1, Q12959): below the threshold; pKd (GRIP1_3, Q9Y3R0): below the threshold; pKd (MAST2, Q6P0Q8): below the threshold; pKd (GORASP2, Q9H8Y8): below the threshold; pKd (SCRIB_1, Q14160): 3.65 |
